This passage reports 2nd ADC Cell Killing IC50 results from US20170253656A1.

B1: 1251-A03 heavy chain paired with VL SEQ ID NO: 272 (antibody, V domains shown)
VH: QVQLVESGGGVVQPGRSLRLSCAASGFAFSDHGMHWVRQAPDKGLEWVAVIWYDGSHKIYADSVKGRFTISRDNSKNTLYLQMNSLRAEDTAVYYCARGGSLAGGAVYGTDVWGQGTTVTVSS
VL: DIQMTQSPSSLSASVGDRVTITCRASQGISSWLAWYQQKPEKAPKSLIYAASSLQSGVPSRFSGSGSGTDFTLTISSLQPEDFATYYCQQYNSYPLTFGGGTKVEIK
B2: 1251-C03 heavy chain paired with VL SEQ ID NO: 272 (antibody, V domains shown)
VH: QVQLVESGGGVVQPGRSLRLSCAASGFNFSSYGMHWVRQAPDKGLEWVAVIWYDGSIKNYADSVKGRFTISRDNSKNTLYLQMNSLRAEDTAVYYCARGGALMRGEFSGHDVWGQGTTVTVSS
VL: DIQMTQSPSSLSASVGDRVTITCRASQGISSWLAWYQQKPEKAPKSLIYAASSLQSGVPSRFSGSGSGTDFTLTISSLQPEDFATYYCQQYNSYPLTFGGGTKVEIK
B3: 1337-A09 light chain paired with VH 1251-A06 (SEQ ID NO: 236) (Fab, V domains shown)
VH: QVQLVESGGGVVQPGRSLRLSCAASGFDFSSYGMHWVRQAPDKGLEWVAVIWDDGSDRYYADSVKGRFTISRDNSKNTLYLQMNSLRAEDTAVYYCARGGTRVLGAIHGTDVWGQGTTVTVSS
VL: DIQMTQSPSSLSASVGDRVTITCRASQGIGSWLAWYQQKPEKAPKSLIYAADRLQSGVPSRFSGSGSGTDFTLTISSLQPEDFATYYCQQYHTYPLTFGGGTKVEIK
B4: 1337-A08 light chain paired with VH 1251-A06 (SEQ ID NO: 236) (Fab, V domains shown)
VH: QVQLVESGGGVVQPGRSLRLSCAASGFDFSSYGMHWVRQAPDKGLEWVAVIWDDGSDRYYADSVKGRFTISRDNSKNTLYLQMNSLRAEDTAVYYCARGGTRVLGAIHGTDVWGQGTTVTVSS
VL: DIQMTQSPSSLSASVGDRVTITCRASQDIGSWVAWYQQKPEKAPKSLIYASDSLQSGVPSRFSGSGSGTDFTLTISSLQPEDFATYYCQQYNSYPLTFGGGTKVEIK
B5: 1251-E06 heavy chain paired with VL SEQ ID NO: 272 (antibody, V domains shown)
VH: QVQLVESGGGVVQPGRSLRLSCAASGFTFDSYGMHWVRQAPDKGLEWVAVIWYDGSNKVYADSVKGRFTISRDNSKNTLYLQMNSLRAEDTAVYYCARGGMVGQGAMFGLDVWGQGTTVTVSS
VL: DIQMTQSPSSLSASVGDRVTITCRASQGISSWLAWYQQKPEKAPKSLIYAASSLQSGVPSRFSGSGSGTDFTLTISSLQPEDFATYYCQQYNSYPLTFGGGTKVEIK
B6: 1251-B08 heavy chain paired with VL SEQ ID NO: 272 (antibody, V domains shown)
VH: QVQLVESGGGVVQPGRSLRLSCAASGFNFSDYGMHWVRQAPDKGLEWVAVIWYDGSISYYADSVKGRFTISRDNSKNTLYLQMNSLRAEDTAVYYCARGGTVEHGAVYGTDVWGQGATVTVSS
VL: DIQMTQSPSSLSASVGDRVTITCRASQGISSWLAWYQQKPEKAPKSLIYAASSLQSGVPSRFSGSGSGTDFTLTISSLQPEDFATYYCQQYNSYPLTFGGGTKVEIK
B7: 1337-A05 light chain paired with VH 1251-A06 (SEQ ID NO: 236) (Fab, V domains shown)
VH: QVQLVESGGGVVQPGRSLRLSCAASGFDFSSYGMHWVRQAPDKGLEWVAVIWDDGSDRYYADSVKGRFTISRDNSKNTLYLQMNSLRAEDTAVYYCARGGTRVLGAIHGTDVWGQGTTVTVSS
VL: DIQMTQSPSSLSASVGDRVTITCRASQGIGRWVAWYQQKPEKAPKSLIYGADRLQSGVPSRFSGSGSGTDFTLTISSLQPEDFATYYCQQYNSYPLTFGGGTKVEIK
B8: 1251-F06 heavy chain paired with VL SEQ ID NO: 272 (antibody, V domains shown)
VH: QVQLVESGGGVVQPGRSLRLSCAASGFTFSSFGMHWVRQAPDKGLEWVAVIWYDGSNEYYADSVKGRFTISRDNSKNTLYLQMNSLRAEDTAVYYCARGGSLVTRGVYGLDVWGQGTTVTVSS
VL: DIQMTQSPSSLSASVGDRVTITCRASQGISSWLAWYQQKPEKAPKSLIYAASSLQSGVPSRFSGSGSGTDFTLTISSLQPEDFATYYCQQYNSYPLTFGGGTKVEIK
B9: 1251-D02 heavy chain paired with VL SEQ ID NO: 272 (antibody, V domains shown)
VH: QVQLVESGGGVVQPGRSLRLSCAASGFSFASHGMHWVRQAPDKGLEWVAVIWDDGSDRYYADSVKGRFTISRDNSKNTLYLQMNSLRAEDTAVYYCARGGTRVLGAIHGTDVWGQGTTVTVSS
VL: DIQMTQSPSSLSASVGDRVTITCRASQGISSWLAWYQQKPEKAPKSLIYAASSLQSGVPSRFSGSGSGTDFTLTISSLQPEDFATYYCQQYNSYPLTFGGGTKVEIK
B10: 1251-D09 heavy chain paired with VL SEQ ID NO: 272 (antibody, V domains shown)
VH: QVQLVESGGGVVQPGRSLRLSCAASGFSFSSYGMHWVRQAPDKGLEWVAVIWYDASIRKYAGSVKGRFTISRDNSKNTLYLQMNSLRAEDTAVYYCARGGTVERGAIYGTDVWGQGTTVTVSS
VL: DIQMTQSPSSLSASVGDRVTITCRASQGISSWLAWYQQKPEKAPKSLIYAASSLQSGVPSRFSGSGSGTDFTLTISSLQPEDFATYYCQQYNSYPLTFGGGTKVEIK
B11: 1251-D06 heavy chain paired with VL SEQ ID NO: 272 (antibody, V domains shown)
VH: QVQLVESGGGVVQPGRSLRLSCAASGFSFGSYGMHWVRQAPDKGLEWVAVVWYDGSKTIYADSVKGRFTISRDNSKNTLYLQMNSLRAEDTAVYYCARGGTLVRGAVYGLDVWGQGTTVTVSS
VL: DIQMTQSPSSLSASVGDRVTITCRASQGISSWLAWYQQKPEKAPKSLIYAASSLQSGVPSRFSGSGSGTDFTLTISSLQPEDFATYYCQQYNSYPLTFGGGTKVEIK
B12: 1251-F07 heavy chain paired with VL SEQ ID NO: 272 (antibody, V domains shown)
VH: QVQLVESGGGVVQPGRSLRLSCAASGFTFSSHGMHWVRQAPDKGLEWVAVIWDDGSNEVYADSVKGRFTISRDNSKNTLYLQMNSLRAEDTAVYYCARGGTRIRGLRYGTDVWGQGTTVTVSS
VL: DIQMTQSPSSLSASVGDRVTITCRASQGISSWLAWYQQKPEKAPKSLIYAASSLQSGVPSRFSGSGSGTDFTLTISSLQPEDFATYYCQQYNSYPLTFGGGTKVEIK
B13: 1337-A04 light chain paired with VH 1251-A06 (SEQ ID NO: 236) (Fab, V domains shown)
VH: QVQLVESGGGVVQPGRSLRLSCAASGFDFSSYGMHWVRQAPDKGLEWVAVIWDDGSDRYYADSVKGRFTISRDNSKNTLYLQMNSLRAEDTAVYYCARGGTRVLGAIHGTDVWGQGTTVTVSS
VL: DIQMTQSPSSLSASVGDRVTITCRASQDIGRWVAWYQQKPEKAPKSLIYGASSLQSGVPSRFSGSGSGTDFTLTISSLQPEDFATYYCQQYNTYPLTFGGGTKVEIK
B14: 1251-G02 heavy chain paired with VL SEQ ID NO: 272 (antibody, V domains shown)
VH: QVQLVESGGGVVQPGRSLRLSCAASGFTFSSYGMHWVRQAPDKGLEWVAVIWHDGSKDYYADSVKGRFTISRDNSKNTLYLQMNSLRAEDTAVYYCARGGQLDHGAIYGLDVWGQGTTVTVSS
VL: DIQMTQSPSSLSASVGDRVTITCRASQGISSWLAWYQQKPEKAPKSLIYAASSLQSGVPSRFSGSGSGTDFTLTISSLQPEDFATYYCQQYNSYPLTFGGGTKVEIK
B15: 1251-B09 heavy chain paired with VL SEQ ID NO: 272 (antibody, V domains shown)
VH: QVQLVESGGGVVQPGRSLRLSCAASGFNFSDYGMHWVRQAPDKGLEWVAVTWYDGSREYYADSVKGRFTISRDNSKNTLYLQMNSLRAEDTAVYYCARGGTLVHGALYGNDVWGQGTTVTVSS
VL: DIQMTQSPSSLSASVGDRVTITCRASQGISSWLAWYQQKPEKAPKSLIYAASSLQSGVPSRFSGSGSGTDFTLTISSLQPEDFATYYCQQYNSYPLTFGGGTKVEIK
B16: 1251-A06 heavy chain paired with VL SEQ ID NO: 272 (antibody, V domains shown)
VH: QVQLVESGGGVVQPGRSLRLSCAASGFDFSSYGMHWVRQAPDKGLEWVAVIWDDGSDRYYADSVKGRFTISRDNSKNTLYLQMNSLRAEDTAVYYCARGGTRVLGAIHGTDVWGQGTTVTVSS
VL: DIQMTQSPSSLSASVGDRVTITCRASQGISSWLAWYQQKPEKAPKSLIYAASSLQSGVPSRFSGSGSGTDFTLTISSLQPEDFATYYCQQYNSYPLTFGGGTKVEIK
B17: 1337-A06 light chain paired with VH 1251-A06 (SEQ ID NO: 236) (Fab, V domains shown)
VH: QVQLVESGGGVVQPGRSLRLSCAASGFDFSSYGMHWVRQAPDKGLEWVAVIWDDGSDRYYADSVKGRFTISRDNSKNTLYLQMNSLRAEDTAVYYCARGGTRVLGAIHGTDVWGQGTTVTVSS
VL: DIQMTQSPSSLSASVGDRVTITCRASQDIGSWVAWYQQKPEKAPKSLIYGADRLQSGVPSRFSGSGSGTDFTLTISSLQPEDFATYYCQQYNSYPLTFGGGTKVEIK
B18: 1337-A07 light chain paired with VH 1251-A06 (SEQ ID NO: 236) (Fab, V domains shown)
VH: QVQLVESGGGVVQPGRSLRLSCAASGFDFSSYGMHWVRQAPDKGLEWVAVIWDDGSDRYYADSVKGRFTISRDNSKNTLYLQMNSLRAEDTAVYYCARGGTRVLGAIHGTDVWGQGTTVTVSS
VL: DIQMTQSPSSLSASVGDRVTITCRASQGISSWVAWYQQKPEKAPKSLIYGASRLQSGVPSRFSGSGSGTDFTLTISSLQPEDFATYYCQQYHTYPLTFGGGTKVEIK
B19: 1193-C08 (scFv)
scFv: EVQLLESGGGLVQPGGSLRLSCAASGFTFNNNWMSWVRQAPGKGLEWVGIINGDDGYTYYADRVKGRFTIIRDNSKNTLYLQMNSLRAEDTAVYYCAKVALGRPRRFDYWGQGTLVTVSSGGGGSGGGGSGGGGSEIVLTQSPGTLSLTPGERATLSCRASQSVSSNYLAWYQQKPGQAPRLLIYGASSRATGIPDRFSGSGSGTDFTLTISRLEPEDFAMYYCQQHYTTPPTFGQGTKVEIK
B20: 1193-E06b (scFv)
scFv: EVQLLESGGGLVQPGGSLRLSCAASGFTFNNTDMSWVRQAPGKGLEWVGIINGSGGATNYADSVKGRFTISRDNSKNTLYLQMNSLRAEDTAVYYCAKFENEWEVSMDYWGQGTLVTVSSGGGGSGGGGSGGGGSEIVLTQSPGTLSLSPGERATLSCRASQSVSSSYLAWYQQKPGQAPRLLIYGASSRATGIPDRFSGSGSGTDFTLTISRLEPEDFAVYYCQQHYTTPPTFGQGTKVEIK
B21: 1193-B06 (scFv)
scFv: EVQLLESGGGLVQPGGSLRLSCAASGFTFTGNWMSWVRQAPGKGLEWVGIIYGTSGATYYADSVKGRFTISRDNSKNTLYLQMNSLRAEDTAVYYCAKPSMSGSRGFDYWGQGTLVTVSSGGGGSGGGGSGGGGSEIVLTQSPGTLSLSPGERATLSCRAGQSVSSSYLAWYQQKPGQAPRLLIYGASSRATGIPDRFSGSGSGTDFTLTISRLEPEDFAVYYCQQHYTTPPTFGQGTKVEIK

Chain of CD74 on CD74 positive SU-DHL-6 cells, P04233 (P04233 whole entry): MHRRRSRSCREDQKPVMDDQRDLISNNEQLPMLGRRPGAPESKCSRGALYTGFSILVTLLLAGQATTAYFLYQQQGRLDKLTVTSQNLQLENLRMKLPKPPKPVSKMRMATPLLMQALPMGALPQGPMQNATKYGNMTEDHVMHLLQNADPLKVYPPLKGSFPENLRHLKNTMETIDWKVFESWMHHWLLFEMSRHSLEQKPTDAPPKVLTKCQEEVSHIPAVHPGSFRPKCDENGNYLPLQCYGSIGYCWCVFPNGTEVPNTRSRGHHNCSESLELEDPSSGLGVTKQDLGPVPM

The assay concerns the target CD74 on CD74 positive SU-DHL-6 cells, P04233. The assay is described as follows: cell-based or functional assay.
B1 displayed a 2nd ADC Cell Killing IC50 of 10 pM.
Regarding B2, the 2nd ADC Cell Killing IC50 came out at 50 pM.
Consider B3, for which the 2nd ADC Cell Killing IC50 was determined as 4 pM.
Molecule B4 came in with a 2nd ADC Cell Killing IC50 of 7 pM.
B5 displayed a 2nd ADC Cell Killing IC50 of 15 pM.
B6 returned a 2nd ADC Cell Killing IC50 of 7 pM.
B7 displayed a 2nd ADC Cell Killing IC50 of 4 pM.
B8: the 2nd ADC Cell Killing IC50 is 17 pM.
Molecule B9 came in with a 2nd ADC Cell Killing IC50 of 14 pM.
As to B10, the 2nd ADC Cell Killing IC50 came out at 7 pM.
B11 came in with a 2nd ADC Cell Killing IC50 of 4 pM.
In the case of B12, the 2nd ADC Cell Killing IC50 was 9 pM.
In turn, B13 yielded a 2nd ADC Cell Killing IC50 of 4 pM.
B14 yielded a 2nd ADC Cell Killing IC50 of 13 pM.
Turning to B15, the 2nd ADC Cell Killing IC50 was 7 pM.
The figure for B16 is 0.2 pM.
The figure for B17 is 4 pM; for B18 it is 4 pM.
Molecule B19 returned a 2nd ADC Cell Killing IC50 of 8660 pM.
The molecule B20 displayed a 2nd ADC Cell Killing IC50 of 8670 pM.
As to B21, the 2nd ADC Cell Killing IC50 was found to be 10300 pM.
